Biological target: ADAM10 (endogenous, rat brain) (UniProt Q10743)
Assay: GST pull-down from rat brain homogenate
Conditions: reference: GST-SAP97wt, PKC-treated; sites T629

binding against the reference: weaker
Substance: SAP97 (GST-SAP97 and YFP-SAP97 constructs) (from UniProt Q62696) GST-SAP97-T629A, PKC-treated

— article PMC4260750
